Results taken from publication PMC5316852.

Target: NavMs prokaryotic sodium channel, wild type, full-length construct (Magnetococcus marinus (Magnetococcus sp. strain MC-1)) (UniProt A0L5S6)
Experiment: crystal structure; sitting drop, 0.05 M NaCl, 0.1 M MES pH 6.5, 37.8% v/v PEG 400, 4% ethylene glycol; protein purified in HEGA-10; molecular replacement with NavAb (PDB 3RVY)

stoichiometry N: 4
Substance: NavMs prokaryotic sodium channel, wild type, full-length construct (from UniProt A0L5S6 1-274) (natural protein)
